The values below come from the RNAGym collection of RNA variant scans (doi:10.7554/elife.80360).

The chains are these.
B1: HDV Ribozyme (parent)
chain: GGCCGGCAUGGUCCCAGCCUCCUCGCUGGCGCCGGCUGGGCAACAUUCCGAGGGGACCGUCCCCUCGGUAAUGGCGAAUGGGACCCA
B2: CPEB3 Ribozyme (parent)
chain: GGGGGCCACAGCAGAAGCGUUCACGUCGCGGCCCCUGUCAGAUUCUGGUGAAUCUGCGAAUUCUGCUGU

Variants of B1 are the subject of the first series. As to the kind of experiment: self-cleavage, relative activity (ratio to wild type); higher = more cleavage; co-transcriptional.
GGCCGGCAUGGUCCCAGCCUCCUCGCUGGCGCCGGCUGGGCAACAUUCCGAGGGGACCGUCCCCUCGGUAAUGGCGAAUGGGAUCCA [C84U]: the self-cleavage came to 0.804.

For GGCCGGCAUGGUCCCAGCCUCCUCGCUGGCGCCGGCUGGGCAACAUUCCGAGGGGACCGUCCCCUCGGUAAUGGCGAAUGGGAGCUA [C84G C86U], the self-cleavage worked out at 0.675.

For the variant GGCCGGCAUGGUCCCAGCCUCCUCGCUGGCGCCGGCUGGGCAACAUUCCGAGGGGACCGUCCCCUCGGUAAUGGCGAAUGGGAGCAA [C84G C86A], the self-cleavage was 0.764.

GGCCGGCAUGGUCCCAGCCUCCUCGCUGGCGCCGGCUGGGCAACAUUCCGAGGGGACCGUCCCCUCGGUAAUGGCGAAUGGGAUCUA [C84U C86U]: the self-cleavage is 0.604.

Take GGCCGGCAUGGUCCCAGCCUCCUCGCUGGCGCCGGCUGGGCAACAUUCCGAGGGGACCGUCCCCUCGGUAAUGGCGAAUGGGAUCGA [C84U C86G]: the self-cleavage stood at 0.907.

In the case of GGCCGGCAUGGUCCCAGCCUCCUCGCUGGCGCCGGCUGGGCAACAUUCCGAGGGGACCGUCCCCUCGGUAAUGGCGAAUGGGACCUG [C86U A87G], the self-cleavage came to 0.942.

With GGCCGGCAUGGUCCCAGCCUCCUCGCUGGCGCCGGCUGGGCAACAUUCCGAGGGGACCGUCCCCUCGGUAAUGGCGAAUGGGACCUC [C86U A87C], the self-cleavage is 0.926.

As for GGCCGGCAUGGUCCCAGCCUCCUCGCUGGCGCCGGCUGGGCAACAUUCCGAGGGGACCGUCCCCUCGGUAAUGGCGAAUGGGAGGCA [C84G C85G], the self-cleavage was 0.26.

As to GGCCGGCAUGGUCCCAGCCUCCUCGCUGGCGCCGGCUGGGCAACAUUCCGAGGGGACCGUCCCCUCGGUAAUGGCGAAUGGGAUGCA [C84U C85G], the self-cleavage amounted to 0.923.

With GGCCGGCAUGGUCCCAGCCUCCUCGCUGGCGCCGGCUGGGCAACAUUCCGAGGGGACCGUCCCCUCGGUAAUGGCGAAUGGGAUUCA [C84U C85U], the self-cleavage came to 0.604.

As for GGCCGGCAUGGUCCCAGCCUCCUCGCUGGCGCCGGCUGGGCAACAUUCCGAGGGGACCGUCCCCUCGGUAAUGGCGAAUGGGAUACA [C84U C85A], the self-cleavage came to 0.877.

With GGCCGGCAUGGUCCCAGCCUCCUCGCUGGCGCCGGCUGGGCAACAUUCCGAGGGGACCGUCCCCUCGGUAAUGGCGAAUGGGACCGC [C86G A87C], the self-cleavage came to 1.04.

Take GGCCGGCAUGGUCCCAGCCUCCUCGCUGGCGCCGGCUGGGCAACAUUCCGAGGGGACCGUCCCCUCGGUAAUGGCGAAUGGGACGUA [C85G C86U]: the self-cleavage was determined as 0.858.

Take GGCCGGCAUGGUCCCAGCCUCCUCGCUGGCGCCGGCUGGGCAACAUUCCGAGGGGACCGUCCCCUCGGUAAUGGCGAAUGGGACACU [C85A A87U]: the self-cleavage is 1.06.

As to GGCCGGCAUGGUCCCAGCCUCCUCGCUGGCGCCGGCUGGGCAACAUUCCGAGGGGACCGUCCCCUCGGUAAUGGCGAAUGGGACACC [C85A A87C], the self-cleavage turned out to be 0.862.

In the case of GGCCGGCAUGGUCCCAGCCUCCUCGCUGGCGCCGGCUGGGCAACAUUCCGAGGGGACCGUCCCCUCGGUAAUGGCGAAUGGGAGCCU [C84G A87U], the self-cleavage came to 0.842.

Regarding GGCCGGCAUGGUCCCAGCCUCCUCGCUGGCGCCGGCUGGGCAACAUUCCGAGGGGACCGUCCCCUCGGUAAUGGCGAAUGGGAUCCC [C84U A87C], the self-cleavage is 0.749.

Regarding GGCCGGCAUGGUCCCAGCCUCCUCGCUGGCGCCGGCUGGGCAACAUUCCGAGGGGACCGUCCCCUCGGUAAUGGCGAAUGGGAUCCU [C84U A87U], the self-cleavage was 0.946.

For the variant GGCCGGCAUGGUCCCAGCCUCCUCGCUGGCGCCGGCUGGGCAACAUUCCGAGGGGACCGUCCCCUCGGUAAUGGCGAAUGGGACCCU [A87U], the self-cleavage was 1.03.

Consider GGCCGGCAUGGUCCCAGCCUCCUCGCUGGCGCCGGCUGGGCAACAUUCCGAGGGGACCGUCCCCUCGGUAAUGGCGAAUGGGACCCC [A87C], for which the self-cleavage turned out to be 1.01.

On to GGCCGGCAUGGUCCCAGCCUCCUCGCUGGCGCCGGCUGGGCAACAUUCCGAGGGGACCGUCCCCUCGGUAAUGGCGAAUGGGACCCG [A87G], for which the self-cleavage amounted to 0.984.

Take GGCCGGCAUGGUCCCAGCCUCCUCGCUGGCGCCGGCUGGGCAACAUUCCGAGGGGACCGUCCCCUCGGUAAUGGCGAAUGGGACUUA [C85U C86U]: the self-cleavage is 0.895.

GGCCGGCAUGGUCCCAGCCUCCUCGCUGGCGCCGGCUGGGCAACAUUCCGAGGGGACCGUCCCCUCGGUAAUGGCGAAUGGGACCAC [C86A A87C]: the self-cleavage amounted to 0.855.

GGCCGGCAUGGUCCCAGCCUCCUCGCUGGCGCCGGCUGGGCAACAUUCCGAGGGGACCGUCCCCUCGGUAAUGGCGAAUGGGACCAG [C86A A87G]: the self-cleavage is 0.804.

For GGCCGGCAUGGUCCCAGCCUCCUCGCUGGCGCCGGCUGGGCAACAUUCCGAGGGGACCGUCCCCUCGGUAAUGGCGAAUGGGACGCG [C85G A87G], the self-cleavage is 0.919.

For the variant GGCCGGCAUGGUCCCAGCCUCCUCGCUGGCGCCGGCUGGGCAACAUUCCGAGGGGACCGUCCCCUCGGUAAUGGCGAAUGGGACUCG [C85U A87G], the self-cleavage is 0.963.

For the variant GGCCGGCAUGGUCCCAGCCUCCUCGCUGGCGCCGGCUGGGCAACAUUCCGAGGGGACCGUCCCCUCGGUAAUGGCGAAUGGGACUCC [C85U A87C], the self-cleavage was found to be 0.933.

For the variant GGCCGGCAUGGUCCCAGCCUCCUCGCUGGCGCCGGCUGGGCAACAUUCCGAGGGGACCGUCCCCUCGGUAAUGGCGAAUGGGACAGA [C85A C86G], the self-cleavage came out at 0.791.

Take GGCCGGCAUGGUCCCAGCCUCCUCGCUGGCGCCGGCUGGGCAACAUUCCGAGGGGACCGUCCCCUCGGUAAUGGCGAAUGGGACAUA [C85A C86U]: the self-cleavage came to 1.05.

The variants in another series derive from B2. The series is described as above.
Take AGGGGCCACAGUAGAAGCGUUCACGUCGCGGCCCCUGUCAGAUUCUGGUGAAUCUGCGAAUUCUGCUGU [G1A C12U]: the self-cleavage was 0.0887.

As for AGGGGCCACAGCAGAAGCGUUCACGUCGCGGCCCCUGUCAGAUUCUGGUGAAUCUGCGAGUUCUGCUGU [G1A A60G], the self-cleavage was determined as 0.0623.

For AGGGGCCACAGCAGAAGCGUUCACGUCGCGGCCCCUGUCAGAUUCUGGUGAAUCUGCGAUUUCUGCUGU [G1A A60U], the self-cleavage came to 0.107.

AGGGGCCACAGCAGAAGCGUUCACGUCGCGGCCCCUGUCAGUUUCUGGUGAAUCUGCGAAUUCUGCUGU [G1A A42U]: the self-cleavage stood at 0.105.

Consider AGGGGCCACAGCAGAAGCGUUCACGUCGCGGCCCCUGUCAGCUUCUGGUGAAUCUGCGAAUUCUGCUGU [G1A A42C], for which the self-cleavage was 0.106.

Take AGGGGCCACAGCAGAAGCAUUCACGUCGCGGCCCCUGUCAGAUUCUGGUGAAUCUGCGAAUUCUGCUGU [G1A G19A]: the self-cleavage turned out to be 0.0657.

Turning to AGGGGCCACAGCAGAAGCUUUCACGUCGCGGCCCCUGUCAGAUUCUGGUGAAUCUGCGAAUUCUGCUGU [G1A G19U], the self-cleavage worked out at 0.0319.
